In experiment [1] the target is T1, human GPC3 (human, UniProt P51654 25-563).
T1 construct: range 25-563; soluble analyte; also called soluble human GPC3; glypican 3
The experiment in a line: SPR. In general terms: SPR reads the build-up and loss of mass on a sensor chip optically.

Experiment [2] addresses T2, soluble human CD3 epsilon chain (human, UniProt P07766 23-126).
T2 construct: also called CD3ε
The experiment is described as follows: SPR.

The target of experiment [3] is T1, human GPC3. The experiment is described as follows: SPR, antibody captured by Protein A/G. As for the experimental part:
The activity to bind human GPC3 when using GL4 (SEQ ID NO: 41) and L0000 (SEQ ID NO: 53) as the L-chain variable regions was evaluated. This was performed using the molecular form of a single-arm antibody having a single Fab at the Fc region of a human IgG1 heterodimerized by the knobs-into-hole technique. H0000 (SEQ ID NO: 40) was used for the anti-GPC3 antibody H-chain variable region.
The affinity and binding rate constants of an anti-GPC3 antibody for an antigen were measured by the multi-cycle kinetics method of a surface plasmon resonance assay using Biacore™-T200 (GE Healthcare Japan). HBS-EP+(GE Healthcare Japan) was used for the running buffer, and an amine coupling kit (GE Healthcare Japan) was used to covalently bind Protein A/G to the CM5 chip (carboxymethyl dextran-coated chip). […] Measurements were carried out by first allowing Protein A/G to capture the antibody solution, and then injecting the human GPC3 solution at a flow rate of […] for three minutes to allow reaction to take place. Then, the solution was switched to HBS-EP+ and the dissociation phase was measured for 15 minutes. After completion of the dissociation phase measurement, the sensor chip was regenerated by washing with 10 mM Gly-HCl at pH 1.5. Measurement at the concentration of 0 was similarly carried out by allowing Protein A/G to capture the antibody solution, performing a three-minute HBS-EP+ injection to allow reaction to take place, and then switching to HBS-EP+ to measure the dissociation phase for 15 minutes. After completion of the dissociation phase measurement, the sensor chip was regenerated by washing with 10 mM Gly-HCl at pH 1.5. A data analysis software exclusively for Biacore, Biacore T200 Evaluation Software Version 1.0, was used to perform kinetic analyses to calculate the binding rate constant (ka), dissociation rate constant (kd), and the rate constant ratio from the obtained sensorgrams.

Experiment [4] has as its target T2, soluble human CD3 epsilon chain. The experiment in a line: SPR, human CD3 on the chip. As for the experimental part:
The activity to bind human CD3 when using hCE115HA (SEQ ID NO: 52) as the H chain variable region and L0000 (SEQ ID NO: 53) as the L-chain variable region was evaluated. This was performed using the molecular form of a single-arm antibody having a single Fab at the Fc region of a human IgG1 heterodimerized by the knobs-into-hole technique.
The affinity and binding rate constants of an anti-CD3 antibody for an antigen were measured by the single-cycle kinetics method of a surface plasmon resonance assay using Biacore™-T200 (GE Healthcare Japan). HBS-EP+(GE Healthcare Japan) was used for the running buffer, and an amine coupling kit (GE Healthcare Japan) was used to covalently bind human CD3 to the CM4 chip (carboxymethyl dextran-coated chip). The anti-CD3 antibody used as the analyte was prepared at 5 and […] using HBS-EP+. Measurements were carried out by first injecting each of the 5- and 20-g/mL anti-CD3 antibody solutions for three minutes continuously at a flow rate of 20 L/min to allow reaction to take place. Then, the solution was switched to HBS-EP+ and the dissociation phase was measured for 3 minutes. After completion of the dissociation phase measurement, the sensor chip was regenerated by washing with 10 mM Gly-HCl at pH 1.5. Measurement at the concentration of 0 was carried out by performing each of the three-minute HBS-EP+ injections twice successively to allow reaction to take place, and then switching to HBS-EP+ to measure the dissociation phase for 3 minutes. After completion of the dissociation phase measurement, the sensor chip was regenerated by washing with 10 mM Gly-HCl at pH 1.5. A data analysis software exclusively for Biacore, Biacore T200 Evaluation Software Version 1.0, was used to perform kinetic analyses to calculate the binding rate constant (ka), dissociation rate constant (kd), and the rate constant ratio from the obtained sensorgrams.

The target in experiment [5] is T1, human GPC3. The experiment is described as follows: SPR, single-arm antibody.

Numbering of substitutions follows the chain as printed. Names and notes keep the numbering of the source.

T2 sequence (P07766 23-126 limits assumed): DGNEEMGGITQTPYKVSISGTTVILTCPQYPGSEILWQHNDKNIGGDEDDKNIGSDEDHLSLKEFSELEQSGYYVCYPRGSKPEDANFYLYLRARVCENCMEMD
T1 sequence (P51654 25-563 limits assumed): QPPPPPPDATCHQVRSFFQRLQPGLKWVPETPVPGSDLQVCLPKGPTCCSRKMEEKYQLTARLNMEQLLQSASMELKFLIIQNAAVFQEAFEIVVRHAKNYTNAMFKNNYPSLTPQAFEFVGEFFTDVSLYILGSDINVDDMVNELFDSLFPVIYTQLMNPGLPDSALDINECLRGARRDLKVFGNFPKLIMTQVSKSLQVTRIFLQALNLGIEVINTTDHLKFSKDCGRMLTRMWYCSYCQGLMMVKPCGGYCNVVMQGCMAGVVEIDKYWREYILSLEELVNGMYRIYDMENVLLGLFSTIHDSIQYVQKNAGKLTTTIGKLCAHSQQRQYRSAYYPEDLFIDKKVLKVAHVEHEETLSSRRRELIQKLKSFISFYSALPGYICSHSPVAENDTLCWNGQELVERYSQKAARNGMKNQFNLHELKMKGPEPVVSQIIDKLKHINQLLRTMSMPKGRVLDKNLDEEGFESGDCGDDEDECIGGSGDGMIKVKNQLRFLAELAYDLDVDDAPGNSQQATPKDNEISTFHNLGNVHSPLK

B1: CE115HA251-E22Hh/L0000-k0/GL4-E22Hk/H0610-E22L (bispecific antibody, human IgG1, kappa, L234A L235A, N297A)
heavy: QVQLVESGGGVVQPGRSLRLSCAASGFTFSNAWMHWVRQAPGKGLEWVAQIKAKSNNYATYYAESVKGRFTISRDDSKNSLYLQMNSLKTEDTAVYYCRYVHYYYYYGVDAWGQGTTVTVSSASTKGPSVFPLAPSSKSTSGGTAALGCLVKDYFPEPVTVSWNSGALTSGVHTFPAVLQSSGLYSLSSVVTVPSSSLGTQTYICNVNHKPSNTKVDKKVEPKSCDKTHTCPPCPAPEAAGGPSVFLFPPKPKDTLMISRTPEVTCVVVDVSHEDPEVKFNWYVDGVEVHNAKTKPREEQYASTYRVVSVLTVLHQDWLNGKEYKCKVSNKALPAPIEKTISKAKGQPREPQVYTLPPSRCELTKNQVSLSCAVKGFYPSDIAVEWESNGQPENNYKTTPPVLDSDGSFFLVSKLTVDKSRWQQGNVFSCSVMHEALHNHYTQKSLSLSPDYKDDDDK
light: DIVMTQSPLSLPVTPGEPASISCRSSQSLVHSNRNTYLHWYQQKPGQAPRLLIYKVSNRFSGVPDRFSGSGSGTDFTLKISRVEAEDVGVYYCGQGTQVPYTFGQGTKLEIKRTVAAPSVFIFPPSDEQLKSGTASVVCLLNNFYPREAKVQWKVDNALQSGNSQESVTEQDSKDSTYSLSSTLTLSKADYEKHKVYACEVTHQGLSSPVTKSFNRGEC
chain 1: DIVMTQSPLSLPVTPGEPASISCRSSQSLVHSNRNTYLHWYQQKPGQAPRLLIYKVSNRFSGVPDRFSGSGSGTDFTLKISRVEAEDVGVYYCSQNTHVPPTFGQGTKLEIKSSASTKGPSVFPLAPSSKSTSGGTAALGCLVKDYFPEPVTVSWNSGALTSGVHTFPAVLQSSGLYSLSSVVTVPSSSLGTQTYICNVNHKPSNTKVDKKVEPKSCDKTHTCPPCPAPEAAGGPSVFLFPPKPKDTLMISRTPEVTCVVVDVSHEDPEVKFNWYVDGVEVHNAKTKPREEQYASTYRVVSVLTVLHQDWLNGKEYKCKVSNKALPAPIEKTISKAKGQPREPQVCTLPPSRDELTKNQVSLWCLVKGFYPSDIAVEWESNGQPENNYKTTPPVLDSDGSFFLYSKLTVDKSRWQQGNVFSCSVMHEALHNHYTQKSLSLSPHHHHHHHH
chain 2: QVQLVQSGAEVKKPGASVKVSCKASGYTFTDYEMHWIRQPPGQGLEWIGAIDGKTPDTAYSQKFKGRVTLTADKSTSTAYMELSSLTSEDTAVYYCTRFYSYTYWGQGTLVTVSSASVAAPSVFIFPPSDEQLKSGTASVVCLLNNFYPREAKVQWKVDNALQSGNSQESVTEQDSKDSTYSLSSTLTLSKADYEKHKVYACEVTHQGLSSPVTKSFNRGEC
notes: ERY22 format
What is called Kd is a measure of binding affinity in units of concentration. A higher Kd goes with lower affinity. For B1, the Kd with human GPC3 [1] was 0.236 nM; in experiment [2] it was 13.7 nM.

B2: GPC3_ERY27 (hCE115HA-E22Hh/L0000-k0/GL4-E22Hk/H0000-E22L) (bispecific antibody, human IgG1, kappa, L234A L235A, N297A)
heavy: B1 heavy with Y104G, Y105A
light: B1 light
chain 1: B1 chain 1
chain 2: B1 chain 2 with G53P, P56G
notes: ERY22 format
On to B2, for which the Kd with human GPC3 [1] was determined as 4.28 nM; in experiment [2], 61.6 nM.

B3: TR01H002-E22Hh/GLS3108-k0/GL4-E22Hk/H0610-E22L (bispecific antibody, human IgG1, kappa, L234A L235A, N297A)
heavy: B1 heavy with A59K, T60K, D110Q
light: B1 light with H39S
chain 1: B1 chain 1
chain 2: B1 chain 2
notes: ERY22 format
Turning to B3, the Kd is 0.475 nM in the experiment with human GPC3 [1] and 2.04 nM in experiment [2].

B4: CE115HA236-E22Hh/GLS3108-k0/GL4-E22Hk/H0610-E22L (bispecific antibody, human IgG1, kappa, L234A L235A, N297A)
heavy: B1 heavy with Y105A, D110Q
light: B1 light with H39S
chain 1: B1 chain 1
chain 2: B1 chain 2
notes: ERY22 format
As to B4, the dissociation constant (Kd) in the experiment with human GPC3 [1] worked out at 0.267 nM; in experiment [2], 6.08 nM.

B5: TR01H015-E22Hh/L0000-k0/GL4-E22Hk/H0610-E22L (bispecific antibody, human IgG1, kappa, L234A L235A, N297A)
heavy: B1 heavy with V11L, A53G, D75A, L81I, Y104S, Y105A, Y106S, A111I
light: B1 light
chain 1: B1 chain 1
chain 2: B1 chain 2
notes: ERY22 format
For the molecule B5, the Kd was found to be 0.263 nM with human GPC3 [1] and 35.7 nM in experiment [2].

B6: H0000/GL4 single-arm antibody (antibody, human IgG1, V domains shown)
VH: QVQLVQSGAEVKKPGASVKVSCKASGYTFTDYEMHWIRQPPGQGLEWIGAIDPKTGDTAYSQKFKGRVTLTADKSTSTAYMELSSLTSEDTAVYYCTRFYSYTYWGQGTLVTVSS
VL: DIVMTQSPLSLPVTPGEPASISCRSSQSLVHSNRNTYLHWYQQKPGQAPRLLIYKVSNRFSGVPDRFSGSGSGTDFTLKISRVEAEDVGVYYCSQNTHVPPTFGQGTKLEIK
notes: single Fab on human IgG1 Fc heterodimerized by knobs-into-hole
Usually koff stands for a measure of how fast the partners let go of each other. Low values mean slow dissociation, high ones fast dissociation. For orientation: kon means the rate constant with which the complex forms. Read a low kon as slower complex formation. For B6, in the experiment with human GPC3 [3], the affinity, expressed as Kd, was 4.2 nM; the off-rate constant (koff) worked out at 0.0018 s⁻¹; the kon was determined as 430000 M⁻¹ s⁻¹.

B7: hCE115HA/L0000 single-arm antibody (antibody, human IgG1, V domains shown)
VH: QVQLVESGGGVVQPGRSLRLSCAASGFTFSNAWMHWVRQAPGKGLEWVAQIKAKSNNYATYYAESVKGRFTISRDDSKNSLYLQMNSLKTEDTAVYYCRYVHYGAYYGVDAWGQGTTVTVSS
VL: B6 VL with S94G, N96G, H98Q, P101Y
notes: as for B6
In experiment [4], B7 had a dissociation constant (Kd) of 120 nM, a koff of 0.023 s⁻¹ and a kon of 190000 M⁻¹ s⁻¹.

B8: GCH094-G1dh/none-Hi-Kn010G3/L0011-k0 (antibody, V domains shown)
VH: B6 VH with K19T, I37V, P40A, Q43E, I48M, P53G, K54E, G56P, Q62E
VL: DIVMTQSPLSLPVTPGEPASISCRSSQPLVHSNRNTYLHWYQQKPGQAPRLLIYKVSNRFSGVPDRFSGSGSGTDFTLKISRVEAEDVGVYYCGQGTQVPYTFGQGTKLEIKR
notes: one-arm
As to B8, the equilibrium dissociation constant (Kd) amounted to 3.88 nM in the experiment with human GPC3 [1] and 4.54 nM in the experiment with human GPC3 [5].

B9: H0000/L0000 single-arm antibody (antibody, human IgG1, V domains shown)
VH: B6 VH
VL: B6 VL with S94G, N96G, H98Q, P101Y
notes: as for B6
In the experiment with human GPC3 [3], B9 yielded a Kd of 36 nM, a koff of 0.011 s⁻¹ and an on-rate (kon) of 300000 M⁻¹ s⁻¹.

B10: GCH065-G1dh/none-Hi-Kn010G3/L0011-k0 (antibody, V domains shown)
VH: B6 VH with K19T, Q43E, P53G, K54P, G56P, Q62E
VL: B8 VL
notes: one-arm
B10: the Kd with human GPC3 [1] and in the experiment with human GPC3 [5] was 0.884 nM each time.

B11: GCH054-G1dh/none-Hi-Kn010G3/L0011-k0 (antibody, V domains shown)
VH: B6 VH with K19T, Q43E, P53G, K54E, G56P, Q62E
VL: B8 VL
notes: one-arm
Turning to B11, the Kd in the experiment with human GPC3 [1] and with human GPC3 [5] was 5.25 nM each time.

B12: H0610-G1dh/none-Hi-Kn010G3/L0000-k0 (antibody, V domains shown)
VH: B6 VH with P53G, G56P
VL: B8 VL with P28S
notes: one-arm
With B12, the equilibrium dissociation constant (Kd) with human GPC3 [1] was found to be 3.97 nM; with human GPC3 [5] it was 4.16 nM.

These data come from patent publication US20250066503A1, “CELL INJURY INDUCING THERAPEUTIC DRUG FOR USE IN CANCER THERAPY” (CHUGAI SEIYAKU KABUSHIKI KAISHA, priority 2016, published 2025).
